Source: patent US20080152587A1 (Amgen, published 2008)

T1: mouse uPAR on the surface of NCTC L929 cells (mouse, UniProt P35456 24-298)
T1 construct: whole, on cells; also called cell surface mouse uPAR
T1 sequence (looked up): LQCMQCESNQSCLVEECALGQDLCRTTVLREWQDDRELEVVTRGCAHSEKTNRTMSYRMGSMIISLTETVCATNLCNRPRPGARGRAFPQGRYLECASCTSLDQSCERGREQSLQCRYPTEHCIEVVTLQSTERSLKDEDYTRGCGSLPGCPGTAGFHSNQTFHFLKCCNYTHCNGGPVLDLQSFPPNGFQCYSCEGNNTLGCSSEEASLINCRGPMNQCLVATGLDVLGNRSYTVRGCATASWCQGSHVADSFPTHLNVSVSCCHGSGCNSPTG

T2: murine uPAR (form not stated) (mouse, UniProt P35456 24-297, limits assumed)
T2 construct: also called mouse uPAR
T2 sequence (looked up): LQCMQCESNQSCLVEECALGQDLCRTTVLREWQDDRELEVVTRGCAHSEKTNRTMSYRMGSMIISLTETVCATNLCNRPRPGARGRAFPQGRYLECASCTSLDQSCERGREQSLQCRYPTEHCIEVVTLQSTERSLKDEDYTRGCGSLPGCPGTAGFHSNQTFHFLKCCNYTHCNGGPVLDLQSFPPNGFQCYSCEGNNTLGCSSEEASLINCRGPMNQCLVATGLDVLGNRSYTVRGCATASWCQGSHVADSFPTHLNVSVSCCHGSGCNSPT


Experiments:
[1] = molecular target: T3, human urokinase-type plasminogen activator receptor (uPAR, CD87), cell-bound (human, UniProt Q03405 23-305); assay: cell-based or functional assay
[2] = molecular target: T3, human urokinase-type plasminogen …; assay: cell-based or functional assay; remark: listed apart in the source
[3] = molecular target: T1, mouse uPAR on the surface of NCTC L929 …; assay: FACS, NCTC L929 mouse cells
Procedure: To make the mouse cross-reactivity results conclusive, direct binding of the mAbs to cell-bound mouse uPAR was measured using FACS analysis. The mouse cell line derived from the connective tissue, NCTC L929, was employed for FACS analysis. The harvested cells were resuspended at 50,000 cells/well using FACS buffer into a V-bottom plate which was put on ice. […] After washing, Cy5-labeled goat anti-human IgG Fc at 5 μg/ml and 7AAD at 5 μg/ml was added. The mixtures were incubated for 15 min on ice, washed and resuspended in cold FACS buffer for FACS analysis.

[4] = molecular target: T4, soluble recombinant human uPAR/His6 (R&D Systems, Cat. # 807-UK-100) (human, UniProt Q03405 23-303); assay: high resolution Biacore
T4 construct: range 1-303; Bought protein; also called soluble uPAR; hu-uPAR
Procedure: (§1) All mAbs were diluted into 10 mM sodium acetate, pH 4.0 for immobilization. […] All experiments were run at 23° C. with a flow rate of 100 μL/min. Serially diluted (2-fold) uPAR samples were randomly injected in triplicate for 90 seconds with several buffer injections interspersed for double referencing. A Biacore™ 2000 biosensor instrument was used for all high resolution experiments. Data were fit globally to a 1:1 interaction model with a term for mass transport included.

[5] = molecular target: T2, murine uPAR (form not stated); assay: summary column Murine X-reactivity
[6] = molecular target: T4, soluble recombinant human uPAR/His6 …; assay: limited antigen ELISA, uPAR coat 80 ng/mL, sample 1:25
Target sequence in this assay (Q03405 other isoform, or with tags, fused parts or gaps limits assumed, form in doubt): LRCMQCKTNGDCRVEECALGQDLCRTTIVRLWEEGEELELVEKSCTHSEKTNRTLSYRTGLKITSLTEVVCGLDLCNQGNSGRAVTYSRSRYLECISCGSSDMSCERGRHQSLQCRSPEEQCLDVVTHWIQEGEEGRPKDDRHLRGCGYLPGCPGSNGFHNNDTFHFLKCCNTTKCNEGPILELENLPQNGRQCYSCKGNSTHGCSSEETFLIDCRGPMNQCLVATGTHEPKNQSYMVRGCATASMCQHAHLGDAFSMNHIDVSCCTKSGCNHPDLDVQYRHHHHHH
Procedure: ELISA plates were coated with a lower amount ofuPAR in comparison with the High Antigen Quantitation assay described below (320, 160, 80, 40 and 20 ng/mL). Samples containing one concentration of antibody (Ab) (1:25 dilution) were incubated overnight to allow Ab binding to approach equilibrium.

[7] = molecular target: T4, soluble recombinant human uPAR/His6 …; assay: high resolution Biacore, mAb amine coupled, uPAR injected
Procedure: as §1

[8] = molecular target: T5, recombinant cynomolgus uPAR ECD with C-terminal His tag (cynomolgus monkey, UniProt Q9GK78 23-303); assay: KinExA, solution equilibrium, human uPAR beads capture free antibody
T5 construct: Used as conditioned medium of transfected HEK293 cells
Procedure: Kinetic measurements of several of the antibodies were evaluated using the KinExA® method. This method involves solution-based determination of formal affinity measurements at equilibrium. […] The remaining active groups on the beads were blocked with 10 mg/ml BSA in 1 M Tris and stored in the blocking solution as recommended by the manufacturer. KinExA experiments were performed using an automated flow immunoassay system, KinExA 3000, in which beads coupled with human uPAR served as the solid phase.
The mixture was drawn through the human uPAR-coupled beads to accumulate unbound antibody. The captured antibody was detected using solutions containing a Cy5-conjugated goat anti-human IgG heavy and light chain specific secondary antibody in sample buffer. […] Three replicates of each sample were measured for all equilibrium experiments. The equilibrium dissociation constant (KD) was obtained from nonlinear regression analysis of the data using a one-site homogeneous binding model with an unknown ligand concentration contained within the KinExA software.

[9] = molecular target: T4, soluble recombinant human uPAR/His6 …; assay: low resolution Biacore, mAb captured by goat anti-human, hu-uPAR 312 nM;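 further: surface plasmon resonance on a CM5 chip with goat anti-human antibody surface made by amine coupling, each mAb from supernatant captured per flow cell, kinetics fitted including mass transport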
Procedure: A high-density goat anti-human antibody surface over a CM5 Biacore™ chip was prepared using routine amine coupling. […] Each mAb was captured on a separate flow cell using a 30-second contact time at 10 μL/min followed by a 5-minute wash at a 100 μL/min flow rate for stabilization of the mAb baseline. […] All antigen samples were prepared in the running buffer.
A mass transport coefficient was used in fitting the data.

[10] = molecular target: T3, human urokinase-type plasminogen …; assay: FACS competition, FITC-tc-uPA on L929 cells expressing human uPAR, supernatant 1:2
Target sequence in this assay (Q03405 23-305): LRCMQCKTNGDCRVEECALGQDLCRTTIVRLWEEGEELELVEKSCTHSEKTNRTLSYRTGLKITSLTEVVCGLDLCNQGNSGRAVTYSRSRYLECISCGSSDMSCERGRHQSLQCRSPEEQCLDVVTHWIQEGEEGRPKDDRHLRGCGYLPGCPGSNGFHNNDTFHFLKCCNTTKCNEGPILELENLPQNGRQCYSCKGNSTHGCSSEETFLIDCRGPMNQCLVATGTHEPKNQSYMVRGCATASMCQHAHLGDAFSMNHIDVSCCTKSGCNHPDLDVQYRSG
Source text: Briefly, murine fibroblast L929 cells (ATCC) were transfected to express human uPAR.

[11] = molecular target: T6, cynomolgus monkey uPAR, cell-bound (cynomolgus monkey, UniProt Q9GK78 23-305); assay: FACS, GeoMean; cynomolgus uPAR expressed on 293T cells; antibody concentration not given
T6 construct: whole, on cells; also called cyno-uPAR
T6 sequence (Q9GK78 23-305): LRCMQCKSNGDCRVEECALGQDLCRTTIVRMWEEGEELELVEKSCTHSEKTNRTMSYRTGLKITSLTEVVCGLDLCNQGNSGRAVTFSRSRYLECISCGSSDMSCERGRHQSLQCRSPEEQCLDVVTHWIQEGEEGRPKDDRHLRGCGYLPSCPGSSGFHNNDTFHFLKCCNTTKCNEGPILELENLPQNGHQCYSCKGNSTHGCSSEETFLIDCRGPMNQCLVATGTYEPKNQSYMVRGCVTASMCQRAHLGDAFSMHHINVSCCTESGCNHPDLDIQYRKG

| inhibition of adhesion of U937 cells to vitronectin at 2 µg/ml [1] [%] | inhibition of plasminogen activation on U937 cells [1] [%] | Plasminogen activation inhibition (IC50, ug/ml) [2] [µg/mL] | binding result [3] | Kd [4] [nM] | binding result [5] | LA at 80 ng/ml [6] | Kd [7] [nM] | Kd [8] [nM] | Kd [9] [nM] | koff [9] [s⁻¹] | kon [9] [M⁻¹ s⁻¹] | uPA/uPAR binding Inhibition % [10] [%] | binding result [11] | Binder |
| --- | --- | --- | --- | --- | --- | --- | --- | --- | --- | --- | --- | --- | --- | --- |
| 90 | > 90 | 0.053 | no binding (tested: 6.25 µg/ml) | 0.175 | no binding | 2.65 | 0.175 | 0.346 | 0.31 | 4.3e-05 | 140000 | 85 |  | fully human monoclonal antibody 2.19.2 (ATCC Accession Number PTA-7474) (antibody, V domains shown) VH: QVQLVESGGGVVQPGRSLRLSCAASGFTFSSYGMHWVRQAPGKGLEWVAVIWYDGSNKYYADSVKGRFTISRDNSKNTLYLQMNSLRAEDTAVYYCARDQHIVVVTAILDYWGQGTLVTVSS VL: not shown |
| 90 | > 90 | 0.073 | no binding (tested: 6.25 µg/ml) | 0.249 | no binding | 3.58 | 0.249 | 1.09 | 0.57 | 4.6e-05 | 81000 | 80 |  | fully human monoclonal antibody 2.6.1 (ATCC Accession Number PTA-7475) (antibody, V domains shown, also called mAb 2.6.1) VH: EVQLVESGGGLIQPGGSLRLSCAASGFTVITNYMNWVRQAPGKGLEWVSIIYTGGSTSYADSVKGRFTVSRDNSKNTLYLHMNSLRVEDTAVYYCAREIAVAGYYGMDVWGQGTTVTVS VL: DIQMTQSPSSLSASVGDRVTITCRASQGIRNDLGWYQQKPGKAPKRLIYAASSLQSGVPSRFSGSGSGTEFTLTISSLQPEDFATYYCLQHNSYPLTFGGGTRVEIK |
| ~90 | > 90 | 0.067 | no binding (tested: 6.25 µg/ml) | 0.446 | no binding | 2.06 | 0.446 |  | 1.5 | 0.00016 | 110000 | 75 | binds | fully human monoclonal antibody 4.18.1 (ATCC Accession Number PTA-7476) (antibody, V domains shown) VH: EVQLVESGGGLIQPGGSLRLSCAASGFTVRNNYMNWVRQAPGKGLEWVSVIYTGGSTYYADSVKGRFTISRDNSRNTLYLQMNSLRAEDTAVYYCAREGAVAGFDYWGQGTLVTVSL VL: EIVMTQFPATLSMSPGERATLSCRASQSVSSSLAWYQQTPGQAPRLLIYGASTRSTGFPARFSGIGSGTEFTLTISSLQSEDFAVYYCQQYGNWPLTFGQGTRLEIK |
